Assay [1] deals with T1, human MCP-1 (human, UniProt P13500 24-99).
T1 construct: also called hMCP-1; huMCP-1
The assay is described as follows: KinExA, in solution. The procedure: (§1) Polymethylmethacrylate beads activated with NHS were coated with 10 μg recombinant human MCP-1 in 1 ml buffer. The beads were packed into a column in the KinExA instrument for each sample. This packed bead column is able to capture free MCP mAb or Fab flowed through the column. The amount of free mAb or Fab in solution was determined using a secondary goat anti-mouse heavy and light chain IgG-Cy5 conjugate.
(§2) A fixed amount of 11K2 mAb, 1A1 mAb, 11K2 Fab, or 1A1 Fab was incubated with various amounts of human MCP-1, MCP-2 or MCP-3 for three hours. The amount of uncomplexed free antibody remaining in solution was determined by flowing these mixtures over the MCP-1-loaded bead column and labeling with the Cy5 secondary antibody. The fluorescent signal was plotted against the MCP concentration and the affinity was determined using a quadratic curve fit
A general note: Kinetic exclusion samples the free partner from a solution-phase mixture.

In assay [2] the target is T2, human MCP-2 (human, UniProt P80075 24-99).
T2 construct: also called hMCP-2; huMCP-2
T2 sequence (looked up): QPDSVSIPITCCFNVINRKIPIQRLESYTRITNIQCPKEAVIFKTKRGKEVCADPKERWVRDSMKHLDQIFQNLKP
Briefly: KinExA, in solution. The procedure: as §1, §2

Assay [3] concerns the target T2, human MCP-2. Briefly: KinExA, in solution, Fab. How it is done:
(§3) 1 ml of MCP-1 at a concentration of 10 μg/ml in NaHCO₃ was added to an amount of beads equivalent to 1 ml of the original slurry. The beads were rocked overnight at 4° C. Beads were spun down and washed once with 1M Tris, pH 8.0, then resuspended in 1M Tris pH 8.0 with 1% BSA, 0.02% azide. The beads were rocked at room temperature for one hour then stored at 4° C. in this buffer for the duration of the experiments.
(§4) The KinExA 3000 measures protein-protein interaction in solution, and is ideally suited for measuring affinities of antibodies to antigens. In the typical experiment, antigen (MCP) is immobilized on a bead, antibody is flowed over a column of these beads at a given concentration, and the antibody that binds to the beads is detected using a fluorescent secondary. Antibody at a fixed concentration is then incubated with different concentrations of antigen in solution and the amount of free antibody is measured by flowing the mixture over the bead column quickly enough that no re-equilibration occurs between solution and solid phase. The amount of antibody remaining free is plotted against the concentration of antigen added and the data are fit to a quadratic equation to determine the affinity of the interaction in solution.
(§5) In these experiments, the only difference to the typical experiment described above is that instead of using intact antibody, a Fab fragment of 11K2 was used. Earlier KimExA experiments using the intact murine 11K2 mAb binding to MCP-1 and MCP-2 gave biphasic curves that the software could not interpret. This may be due to these proteins acting as dimers, so to eliminate the dimer/dimer interaction we generated Fab fragments. The binding of the 11K2 Fab fragments to MCP-1 and MCP-2 produced curves that the KinExA software could fit.

Assay [4] has as its target T1, human MCP-1. The assay is described as follows: KinExA, in solution, Fab; Fab, not intact mAb. How it is done:
as §3
as §4, with “solution. […]” for “solution.”

In assay [5] the target is T1, human MCP-1. The assay is described as follows: KinExA, in solution, Fab. How it is done: as §3, §4, §5
Assay [6] addresses T2, human MCP-2. Briefly: KinExA, in solution; Fab, not intact mAb.

B1: Fab fragment of murine 11K2 (Fab, V domains shown)
VH: EVQLQQSGAELVKAGASVKLSCPASGLNIKDTYMHWVKQRPEQGLEWIGRIDPANGNTKFDPKFQGKATITADTSSNTAYLQLSSLTSEDTAVYYCARGVFGFFDYWGQGTTLTVSS
VL: DIQMTQSSSSFSVSLGDRVTITCKATEDIYNRLAWYQQKPGSAPRLLISGATSLETGVPSRFSGSGSGKDYTLSITSLQTEDVATYYCQQFWSAPYTFGGGTKLEIK
notes: also called 11K2 Fab; mu11K2 Fab
Broadly, the Kd is the equilibrium constant for the complex coming apart. Regarding B1, the dissociation constant Kd was 0.011 nM in the assay with human MCP-1 [1], 0.43 nM with human MCP-2 [2], 0.43 nM in the assay with human MCP-2 [3] and 0.011 nM in the assay with human MCP-1 [4].

B2: Fab fragment of murine 1A1 (Fab, V domains shown)
VH: EVQLQQSGAELVRSGASVKLSCTASGFNIKDNYMHWVKQRPEQGLEWIGWIDPENGDTEYAPKFQGKATMTADTSSNTAYLQLSSLTSEDTAVYYCNTWAYYGTSYGGFAYWGQGTTVTVSS
VL: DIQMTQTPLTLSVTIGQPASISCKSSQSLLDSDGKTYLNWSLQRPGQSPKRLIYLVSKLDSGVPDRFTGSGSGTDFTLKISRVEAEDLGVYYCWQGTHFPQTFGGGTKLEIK
notes: also called 1A1 Fab
As for B2, the Kd with human MCP-1 [1] was 0.013 nM; with human MCP-1 [5] it was 0.0129 nM; in the assay with human MCP-2 [3], 0.32 nM; with human MCP-2 [6], 0.32 nM.
